According to patent US11160888B2, “PET tracer for imaging of neuroendocrine tumors” (priority 2011, dated 2021):

Columns and labels:
[1] = 64Cu-DOTATATE PET biodistribution by SUV quantitation in neuroendocrine tumor patients; conditions: both, human, pituitary, adrenals, spleen, iv, 200 MBq, total radioactivity
Source text: (§1) Fourteen consecutively enrolled patients participated in this pilot study and underwent PET scanning with the new tracer on several time points. Patients were eligible in case of a histopathologically confirmed neuroendocrine tumor including positive immunostainings for chromogranin A and synaptophysin. They got offered study inclusion in case of referral to conventional SRI as part of routine follow-up. The maximum allowed time interval between both imaging modalities was 60 days. According to local clinical routine there was no need for interruption of biotherapy e.g. withdrawal of long- or short-time acting somatostatin analogs. However, patients must not have undergone major surgical interventions or systemic chemotherapy between conventional SRI and the PET scanning. The study group consisted of thirteen patients with gastroenteropancreatic neuroendocrine tumors (2 foregut, 6 midgut, 5 NET of unknown origin) and one patient with a known mutation in the multiple endocrine neoplasia I gene, who was diagnosed with a bronchogenic NET ten years ago. Age ranged from 40-80 years. Gender distribution: four women, ten men. Ten of the tumors were active functioning causing classical carcinoid syndromes mainly due to hepatic tumor load. One patient had shown clinical and biochemical manifestations of a Zollinger-Ellison syndrome at time of diagnosis. Twelve patients were in advanced disease state—TNM stage IV according to most recently both UICC/AJCC and ENETS classifications. Two patients had undergone respectively R0- and R1-resections, both without detectable disease so far. Patient recruiting and follow-up was carried out at the Department of Abdominal Surgery C. SRI was performed at the Department of Clinical Physiology, Nuclear Medicine and PET. Both departments are part of the Neuroendocrine Tumor Center of Excellence, Rigshospitalet, University of Copenhagen, Denmark. All patients had given written informed consent prior to inclusion. The study was approved by the Danish Medicines Agency and the Regional Research Ethics Committee.
(§2) PET-CT images were acquired on an integrated PET-CT Siemens Biograph True X, multi-slice. […] Imaging was performed 1h, 3h and 24h after injection.
(§3) Planar whole-body scans/SPECT-CT and PET-CT images were evaluated by two separate teams consisting of both a nuclear medicine physician and a radiologist. Both teams were briefed about the patients past medical history. When abnormal findings only detected on co-registered CT had led the attention to a specific anatomical site, this particular region was revaluated using the molecular imaging data. Judged visually, there also had to be clearly detectable lesion to be accounted as true SRI positive as this was the main focus of interest of the present study. However, all lesions were documented, whether identified on CT images or by SRI. Findings were reported according to their respective anatomical site and if possible absolute numbers of lesions per organ system. […] While still remaining blinded to the opposite SRI results, this disparity was tried to balance by additionally providing the team evaluating ^111In-pentreotide SPECT-CT scans with the findings from contrast enhanced diagnostic CT. Interpretation of conventional SRI was performed based on the knowledge of normal tissue accumulation of ^111In-pentreotide. Interpretation of the findings from the new PET method was carried out in a similar manner being aware of possible differences regarding residence times and excretion patterns of the new tracer. Confirmation of the pointed-out lesions was sought by routine follow-up including CT, MRI, conventional SRI and biopsy if possible. Newly detected lesions on co-registered CT imaging were accepted for confirmations as well. Semi-quantitative analysis of tissue radioactivity concentrations was performed by drawing volumes of interests (VOI) around detected lesions and encompassing normal tissues with appreciable tracer uptake on fused PET-CT images.

[2] = system: somatostatin receptor; experiment: as above
Source text: as §1, §2, §3

[3] = system: neuroendocrine tumor; experiment: Comparative lesion detection, 64Cu-DOTATATE PET versus 111In-DTPA-octreotide SPECT; type: in vivo, human
Source text: as §1, §2
^111In-pentreotide was intravenously applied with a target dose of 200 MBq. The scans consisted of whole body planar scintigraphy and SPECT-CT: Planar images were acquired at 24 h (anterior and posterior whole-body scan, scan speed 5 cm/min, 512*1.024 matrix) and at 48 h (15 min static planar image (256*256 matrix) of the abdomen using a large field of view medium-energy collimator (Precedence 16-slice scanner, Philips Healthcare; VG Hawkeye, GE Healthcare). SPECT (20 sec/step, 128 angles, 128*128 matrix) over the abdomen was obtained at 24 or 48 h, and included also the chest if a pathological focus was suspected from the whole body scan. A low-dose CT was used as anatomical guide and for attenuation correction. SPECT and CT were fused and reviewed on dedicated workstations (EBW, Philips Healthcare; eNTEGRA, GE Healthcare).
Planar whole-body scans/SPECT-CT and PET-CT images were evaluated by two separate teams consisting of both a nuclear medicine physician and a radiologist. Both teams were briefed about the patients past medical history. When abnormal findings only detected on co-registered CT had led the attention to a specific anatomical site, this particular region was revaluated using the molecular imaging data. Judged visually, there also had to be clearly detectable lesion to be accounted as true SRI positive as this was the main focus of interest of the present study. However, all lesions were documented, whether identified on CT images or by SRI. Findings were reported according to their respective anatomical site and if possible absolute numbers of lesions per organ system.

[4] = in vivo
[5] = human, in vivo
Source text: No additional radiochemical purification step was required. […] The mean administered activity was 207 6 10 MBq (range, 193-232 MBq). […] This side effect was probably due to the somatostatin analog contained in the tracer.

CC(O)[C@H](NC(=O)[C@@H]1CSSC[C@H](NC(=O)[C@@H](Cc2ccccc2)NC(=O)CN2CCN(CC(=O)O)CCN(CC(=O)O)CCN(CC(=O)O)CC2)C(=O)N[C@@H](Cc2ccc(O)cc2)C(=O)N[C@H](Cc2c[nH]c3ccccc23)C(=O)N[C@@H](CCCCN)C(=O)N[C@@H](C(C)O)C(=O)N1)C(=O)O (stereo partly shown) [64Cu-DOTATATE, metal not drawn]
SUV [1]: ≤ 20 SUV
activity distribution on late scan ([2]; 24 h after injection): activity washout from most organs and lesions
SUVmax range ([2]; bone lesions, 1 h): 30-117
SUVmax range ([2]; bone lesions, 3 h): 27-111
tracer accumulation category (high, moderate, faint) ([2]; liver and spleen): Moderate to high
SUVmax range ([2]; liver lesions, 1 h): 20-81
SUVmax range ([2]; liver lesions, 3 h): 26-81
SUVmax range ([2]; lymph nodes (lesions), 1 h): 9-110
SUVmax range ([2]; lymph nodes (lesions), 3 h): 9-115
tracer accumulation category (high, moderate, faint) ([2]; pituitary, adrenal glands, kidneys, renal pelvis, urinary bladder): High
tracer accumulation category (high, moderate, faint) ([2]; salivary glands, in 12 of 14 patients): faint to moderate
tracer accumulation category (high, moderate, faint) ([2]; thyroid gland, in 2 patients): moderate
image quality compared with SPECT with 111In-DTPA-octreotide ([3]; PET): considerably better image quality
number of lymph node lesions revealed ([3]; all 14 patients): 98
Number and localization of lesions detected ([3]; patient no. 2): Negative
Number and localization of lesions detected ([3]; patient no. 4): Negative
Number and localization of lesions detected ([3]; patient no. 5): Lymph nodes (>30)
Number and localization of lesions detected ([3]; patient no. 7): Pancreas (1), liver (>10) bones (>10)
Number and localization of lesions detected ([3]; patient no. 10): Lymph nodes (10)
Number and localization of lesions detected ([3]; patient no. 11): Liver (>10)
absorbed dose [4]: 0.19 mGy/MBq
estimated effective dose [4]: 6.3 mSv
adverse or clinically detectable pharmacologic effects [5]: no adverse or clinically detectable pharmacologic effects
changes in vital signs [5]: No significant changes
subjects who experienced self-limiting nausea [5]: 4 subjects
